Results published in patent US20250122304A1, “PRE-TARGETING” (Precirix N.V., priority 2022, published 2025).
One block for each molecule: values may come before it.

Key:
[1] = biological target: T1, human fibroblast activation protein (FAP) (human, UniProt Q12884 26-760); assay: BLI (Octet), kinetics to human FAP, post TCO conjugation
T1 construct: also called human FAP; hFAP
T1 sequence: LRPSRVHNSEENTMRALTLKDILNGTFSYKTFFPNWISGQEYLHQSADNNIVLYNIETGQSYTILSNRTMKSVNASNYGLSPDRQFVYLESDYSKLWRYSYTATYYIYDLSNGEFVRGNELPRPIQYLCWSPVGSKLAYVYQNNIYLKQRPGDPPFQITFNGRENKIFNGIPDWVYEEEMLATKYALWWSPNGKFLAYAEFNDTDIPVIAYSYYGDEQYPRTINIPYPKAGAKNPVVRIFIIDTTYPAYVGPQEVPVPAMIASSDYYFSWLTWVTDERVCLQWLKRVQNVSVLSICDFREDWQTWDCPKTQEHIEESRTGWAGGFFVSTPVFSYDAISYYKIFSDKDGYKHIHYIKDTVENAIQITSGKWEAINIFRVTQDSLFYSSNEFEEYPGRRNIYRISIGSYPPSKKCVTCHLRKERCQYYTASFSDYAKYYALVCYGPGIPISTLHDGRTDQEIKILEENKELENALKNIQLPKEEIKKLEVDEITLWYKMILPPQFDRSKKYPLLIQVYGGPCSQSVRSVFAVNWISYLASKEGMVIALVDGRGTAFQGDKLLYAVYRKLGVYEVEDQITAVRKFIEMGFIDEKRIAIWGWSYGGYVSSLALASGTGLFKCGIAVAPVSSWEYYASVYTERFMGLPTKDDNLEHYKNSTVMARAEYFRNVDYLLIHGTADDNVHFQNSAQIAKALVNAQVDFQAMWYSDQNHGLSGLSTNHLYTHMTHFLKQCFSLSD
Procedure: Using the BLI technology on Octet system the binding kinetics towards human FAP were determined for each of the five VHHs pre- and post-TCO conjugation.

human FAP = biological target: T2, human FAP (Homo sapiens, UniProt Q12884); assay: BLI click reaction with Tz-R3B23 on TCO-VHHs bound to target, span (Example 7, Table 18); conditions: signal difference vs assay buffer
T2 sequence (Q12884 1-760): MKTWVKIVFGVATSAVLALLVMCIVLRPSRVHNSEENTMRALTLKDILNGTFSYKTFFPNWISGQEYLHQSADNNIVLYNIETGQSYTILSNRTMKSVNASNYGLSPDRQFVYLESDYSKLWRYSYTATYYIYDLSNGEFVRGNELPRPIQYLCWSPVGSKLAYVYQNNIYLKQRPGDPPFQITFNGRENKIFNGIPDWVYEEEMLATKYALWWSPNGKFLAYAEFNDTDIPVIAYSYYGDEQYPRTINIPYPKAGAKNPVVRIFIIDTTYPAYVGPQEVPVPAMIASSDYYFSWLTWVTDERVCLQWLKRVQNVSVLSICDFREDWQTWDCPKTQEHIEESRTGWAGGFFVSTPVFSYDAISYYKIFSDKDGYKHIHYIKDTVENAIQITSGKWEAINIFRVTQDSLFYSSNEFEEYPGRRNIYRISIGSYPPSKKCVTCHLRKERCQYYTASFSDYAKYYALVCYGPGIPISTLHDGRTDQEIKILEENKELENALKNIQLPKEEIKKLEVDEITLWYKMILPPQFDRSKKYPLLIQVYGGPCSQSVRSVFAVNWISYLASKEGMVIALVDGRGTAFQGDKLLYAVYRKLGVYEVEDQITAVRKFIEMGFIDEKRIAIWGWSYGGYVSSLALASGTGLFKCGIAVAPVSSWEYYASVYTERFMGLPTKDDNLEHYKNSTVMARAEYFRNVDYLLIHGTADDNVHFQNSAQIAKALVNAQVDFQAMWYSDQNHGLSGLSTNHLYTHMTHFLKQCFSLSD
Procedure: Next, Octet Streptavidin (SA) Biosensors were coated with 5 μg/mL biotinylated human FAP in assay buffer (HBS+0.5% BSA+0.1% Tween20) for 5 minutes. The sensors were then dipped in wells containing a 5 nM solution of the different VHHs (both TCO conjugated and unconjugated as control) for 20 minutes (association step) and further transferred to the assay buffer (dissociation step) for 30 minutes. After the dissociation phase, that simulates the lag time, the sensors were transferred to either a well containing 50 nM of a tetrazine-coupled, non-FAP binding R3B23 (Tz-R3B23) or to a well containing assay buffer as a control. This reaction was allowed to proceed for 20 minutes (experiment 1) or 30 minutes (experiment 2) after which the sensors were washed for 30 minutes in assay buffer. In the second experiment the TCO-VHHs were measured in duplicate (referred to as assay 1 and 2 of ‘experiment 2’ in the table below). Using the epitope binning function of ‘Octet Analysis Software’ we then determined the difference in signal between the VHHs incubated with Tz-R3B23 and the VHHs incubated with assay buffer. […] The span of unconjugated VHHs was considered as noise.

[2] = biological target: T3, human folate receptor alpha (FOLR1) (human, UniProt P15328 25-234, limits assumed); assay: SPR (Biacore), kinetics to hFOLR1, pre TCO conjugation
T3 construct: also called hFOLR1; human FOLR1
T3 sequence (P15328 25-234 limits assumed): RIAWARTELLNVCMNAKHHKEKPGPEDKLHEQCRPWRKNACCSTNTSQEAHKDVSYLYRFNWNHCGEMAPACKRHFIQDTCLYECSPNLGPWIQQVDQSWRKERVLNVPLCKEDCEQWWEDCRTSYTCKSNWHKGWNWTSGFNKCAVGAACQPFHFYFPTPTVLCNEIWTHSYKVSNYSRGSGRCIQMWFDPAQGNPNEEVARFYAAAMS

[3] = biological target: T3, human folate receptor alpha (FOLR1); assay: SPR (Biacore), kinetics to hFOLR1, post TCO conjugation
hFOLR1 [4] = biological target: T4, hFOLR1 (Homo sapiens, UniProt P15328); assay: SPR click reaction with Tz-R3B23, span of relative response (Example 8, Table 20); conditions: Biacore
T4 sequence (P15328 25-234): as the sequence (P15328 25-234 limits assumed) above
Procedure: Next, the click reaction was verified using SPR. 5 μg/mL recombinant hHER2 in 10 mM NaOAc pH 4.5 or 5 μg/mL recombinant hFOLR1 in 10 mM NaOAc pH 5.5 was immobilized on a Biacore Sensor Chip CM5 to a target level of 740 Response Units (RU) and 250 RU, respectively. […] For the VHH7 binding FOLR1 a VHH concentration of 5 nM was used, and the association and dissociation phases took 450 s and 900 s, respectively. […] As a negative control for the click reaction, we injected assay buffer (HBS) instead of the Tz-R3B23 over the flow cell. Using the Biacore evaluation software we determined the difference between the relative response before and after the click reaction with either the Tz-R3B23 or the negative control assay buffer. This difference is further on referred to as span.

hFOLR1 [5] = biological target: T4, hFOLR1; assay: SPR (Biacore) binding kinetics before and after TCO conjugation (Example 8, Table 19)
From the text: Using Surface Plasmon Resonance (Biacore) we determined the binding kinetics of the unconjugated and TCO-conjugated VHH (TCO-VHH) for the respective target as described earlier for VHH2 and VHH8 (EP3718574A1).

Kd [1]: 0.166 nM
koff [1]: 0.000123 s⁻¹
kon [1]: 746000 M⁻¹ s⁻¹
B1: TCO-VHH7 (VHH)
VHH: QVQLQESGGGLVQAGGSLRLSCTASGTFSGRNAMAWYRQAPGKRRELVAGIRSDDSTNYVDSVKGRFTISRDNAKNTVYLQMNSLRPEDTAVYYCNLWPPVIGAGFGSWGQGTQVTVSS
modifications: trans-cyclooctene (TCO) conjugated via TCO-NHS; site(s) and number not stated
notes: also called TCO conjugated VHH7; VHH7 post conjugation

Kd [1]: 0.951 nM
koff [1]: 0.0012 s⁻¹
kon [1]: 1.26e+06 M⁻¹ s⁻¹
B3: TCO-VHH9 (VHH)
VHH: QVQLQESGGGLVQSGGSLRLSCVASGSISSINAMGWYRQAPGNKREWVAGITSGGSTNYADAVLGRFSIFRDNPKNTVYLQMNSLKPEDTAVYYCNTWPPSTFGSWGQGTQVTVSS
modifications: trans-cyclooctene (TCO) conjugated via TCO-NHS; site(s) and number not stated
notes: also called TCO conjugated VHH9; VHH9 post conjugation

Kd [2]: 0.047 nM
koff [2]: 0.000167 s⁻¹
kon [2]: 3.54e+06 M⁻¹ s⁻¹
B4: VHH2 (VHH)
VHH: DVQLVESGGGLVQPGGSLRLSCAASESIFSRNHMSWYRQAPGKQRELAAIITSDGNTNYPDSVKGRFTISRDNAKNTVYLQMNSLKPEDTAVYYCNTFGRSVAGFYDYWGQGTQVTVSS
notes: Anti-FOLR1 VHH, tested before TCO conjugation; also called VHH VHH2; unconjugated VHH2

Span of the Relative Response (hFOLR1 [4]; TCO-VHH bound on hFOLR1, Tz-R3B23 at 100 times molar excess): 12.3 RU
Span of the Relative Response (hFOLR1 [4]; Unconjugated VHH bound on hFOLR1, Tz-R3B23 at 100 times molar excess): 0.6 RU
binding kinetics after TCO conjugation (hFOLR1 [5]): barely affected
koff (hFOLR1 [5]; Post conjugation (TCO)): 0.000192 s⁻¹
kon (hFOLR1 [5]; Post conjugation (TCO)): 2.61e+06 M⁻¹ s⁻¹
koff (hFOLR1 [5]; Pre conjugation): 0.000167 s⁻¹
kon (hFOLR1 [5]; Pre conjugation): 3.54e+06 M⁻¹ s⁻¹
B6: VHH2: VHH, target FOLR1, SEQ ID NO 21 (protein)
VHH: DVQLVESGGGLVQPGGSLRLSCAASESIFSRNHMSWYRQAPGKQRELAAIITSDGNTNYPDSVKGRFTISRDNAKNTVYLQMNSLKPEDTAVYYCNTFGRSVAGFYDYWGQGTQVTVSS
modifications: Full length sequence of VHH2

Kd [1]: 0.671 nM
koff [1]: 0.000559 s⁻¹
kon [1]: 833000 M⁻¹ s⁻¹
B7: TCO-VHH8 (VHH)
VHH: QVQLQESGGGTVQPGGSLRLSCAASGISVSIASMAWYRQAPGKQRELVAGIISGGSTNYADSVKGRFTISRDNAKKVVLLQMNSLKPEDTAVYYCNTYPPFVGPGATATWGQGTQVTVSS
modifications: trans-cyclooctene (TCO) conjugated via TCO-NHS; site(s) and number not stated
notes: also called TCO conjugated VHH8; VHH8 post conjugation

Further lines, the molecule ahead of its results:

B2: TCO-VHH6 (VHH)
VHH: DVQLVESGGGLVQAGGSLRLSCAVSGSISSANSMGWYRQAPGKQRDVVAGLTTGGRSHYADSVKGRFTISRDNAKNTVYLQMNSLKAEDTAVYYCNLWPPVQGYWGQGTQVTVSS
modifications: trans-cyclooctene (TCO) conjugated via TCO-NHS; site(s) and number not stated
notes: also called TCO conjugated VHH6; VHH6 post conjugation
Span (human FAP; Experiment 1, click reaction with 50 nM Tz-R3B23 for 20 minutes): 0.0230
Span (human FAP; Experiment 2, 1st assay, click reaction with 50 nM Tz-R3B23 for 30 minutes): 0.0287
Span (human FAP; Experiment 2, 2nd assay, click reaction with 50 nM Tz-R3B23 for 30 minutes): 0.0229
Kd [1]: 0.147 nM
koff [1]: 0.000157 s⁻¹
kon [1]: 1.07e+06 M⁻¹ s⁻¹

B5: TCO-VHH2 (VHH)
VHH: DVQLVESGGGLVQPGGSLRLSCAASESIFSRNHMSWYRQAPGKQRELAAIITSDGNTNYPDSVKGRFTISRDNAKNTVYLQMNSLKPEDTAVYYCNTFGRSVAGFYDYWGQGTQVTVSS
modifications: trans-cyclooctene (TCO) conjugated via NHS-TCO; site(s) and number not stated
notes: also called TCO-conjugated VHH2; VHH2 post conjugation
Kd [3]: 0.0734 nM
koff [3]: 0.000192 s⁻¹
kon [3]: 2.61e+06 M⁻¹ s⁻¹

B8: TCO-VHH1 (VHH)
VHH: DVQLVESGGGLVQPGGSLRLSCVASGRLSSSNSMAWYRQVPGKRRELVAGITGGGETNYADFVGGRFTISRDNAKNGLYLQLNGLKPEDTAAYYCNFWPPLINYWGQGTQVTVSS
modifications: trans-cyclooctene (TCO) conjugated via TCO-NHS; site(s) and number not stated
notes: also called TCO conjugated VHH1; VHH1 post conjugation
Kd [1]: 0.0719 nM
koff [1]: 4.99e-05 s⁻¹
kon [1]: 694000 M⁻¹ s⁻¹
